In paper PMC8406323, “Cellular 5′-3′ mRNA Exoribonuclease XRN1 Inhibits Interferon Beta Activation and Facilitates Influenza A Virus Replication” (mBio, 2021):

Target: T1, GST-XRN1-C-terminal region (aa 1174–1706) fusion protein (human, UniProt Q8IZH2 1174-1706)
T1 construct: XRN1, human, C-terminal region aa 1174-1706 (vector pGEX-6P); Held on glutathione beads in the pull-down; also called GST-tagged-XRN1 (aa 1174–1706); source: E. coli BL21(DE3), purified (glutathione Sepharose 4B)
T1 sequence: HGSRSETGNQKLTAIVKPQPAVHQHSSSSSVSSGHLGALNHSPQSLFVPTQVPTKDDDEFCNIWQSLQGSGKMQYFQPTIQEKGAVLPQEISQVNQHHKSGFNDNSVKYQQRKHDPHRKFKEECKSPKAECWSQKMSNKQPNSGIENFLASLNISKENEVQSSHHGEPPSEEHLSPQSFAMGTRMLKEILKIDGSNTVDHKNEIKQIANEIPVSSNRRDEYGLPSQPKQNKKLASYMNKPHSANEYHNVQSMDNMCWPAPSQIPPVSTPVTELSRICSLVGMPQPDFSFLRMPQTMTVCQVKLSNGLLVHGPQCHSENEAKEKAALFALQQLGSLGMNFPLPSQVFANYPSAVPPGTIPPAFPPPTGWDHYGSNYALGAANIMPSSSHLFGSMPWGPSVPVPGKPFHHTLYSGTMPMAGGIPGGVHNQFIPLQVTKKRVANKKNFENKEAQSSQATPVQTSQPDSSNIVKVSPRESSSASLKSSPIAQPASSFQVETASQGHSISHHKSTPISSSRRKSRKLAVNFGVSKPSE
Test: pull-down
Conditions: both partners purified

B1: His-NS1 from PR8 (natural protein)
chain: MDPNTVSSFQVDCFLWHVRKRVADQELGDAPFLDRLRRDQKSLRGRGSTLGLDIETATRAGKQIVERILKEESDEALKMTMASVPASRYLTDMTLEEMSRDWSMLIPKQKVAGPLCIRMDQAIMDKNIILKANFSVIFDRLETLILLRAFTEEGAIVGEISPLPSLPGHTAEDVKNAVGVLIGGLEWNDNTVRVSETLQRFAWRSSNENGRPPLTPKQKREMAGTIRSEV
notes: also called His-tagged NS1; recombinant NS1
B1: binds.
